Test results from patent publication US20140356358A1 (Amgen, published 2014).
Changes are numbered by the printed parent chain. In names and notes the source's numbering stands.

B1: variant Fc-fragment Fc-5-1 (other)
chain: EPKSCDKTHTCPPCPAPELLGGPSVFLFPPKPKDTLMISRTPEVTCVVVDVSHEDPEVKFNWYVDGVEVHNAKTKPREEQYNSTYRVVSVLTVLHQDWLNGKEYKCKVSNKALPAPIEKTISKAKGQPREPQVYTLPPSRDELTKNQVSLTCLVKGFYPSDIAVEWESNGGCGMPIEFCGGGQPENNYKTTPPVLDSDGSFFLYSKLTVDKSRWQQGNVFSCSVMHEALHNHYTQKSLSLSPGK
notes: library L5 isolate; also called variant 5-1
B2: variant Fc-fragment Fc-5-106-M4L (other)
chain: B1 chain with G173V, M174F, P175N, I176L, E177F, F178N

Columns and labels:
[1] = target: T1, human neonatal Fc receptor (hFcRn) (human, UniProt P55899 24-290; P61769 21-119); test: SPR competition pH 5.5
T1 construct: Biotinylated in the ELISA, Octet and yeast assays; also called human FcRn; huFcRn
Experimental: (§1) Binding of variant Fc-fragments to human and cynomolgus monkey FcRn was tested using a BIAcore® T100 analysis system (GE Healthcare Bio-Sciences AB Private Limited Liability Company, Uppsala, Sweden) at both pH 5.5 and pH 7.4. The test consisted of incubating various concentrations of the variant Fc-fragments or control Fc-fragments with a fixed amount of human or cynomolgus monkey FcRn under binding conditions and subsequently measuring the amount of free, unbound FcRn in these mixtures by binding to a surface (in a flow cell of a CM5 (Biacore) chip) on which an Fc-fragment was immobilized. […] Thus, the amount of unbound FcRn in the mixture was quantitatively ascertained by surface plasmon resonance through use of the BIAcore® T100 analysis system. […] Initially, a group of 23 variant-Fc-fragments (Fc-5-1 being considered a control) identified in the experiments described above were tested for binding to human FcRn.
(§2) To obtain a reasonable signal for the different molecules and conditions tested, different assay conditions were used. For assays at pH 5.5, 10 nM of human or cynomolgus monkey FcRn was mixed with serial dilutions of the variant and control Fc-fragments being tested (which ranged from 0.1˜2,000 nM) and incubated for 1 hour at room temperature in 10 mM sodium acetate, pH 5.5, 150 mM NaCl, 0.005% P20, 0.1 mg/mL BSA. As positive controls, […] human and cynomolgus monkey FcRn were each incubated in the same solution, for the same time, and at the same temperature described immediately above, but without an added Fc-fragment.

[2] = target: T2, cynomolgus monkey FcRn (cynomolgus monkey, UniProt Q8SPV9 24-297; Q8SPW0 21-119, limits assumed); test: SPR competition pH 5.5
T2 construct: also called Cynomolgus FcRn
T2 sequence (Q8SPV9 24-297 limits assumed, chain 1 of 2): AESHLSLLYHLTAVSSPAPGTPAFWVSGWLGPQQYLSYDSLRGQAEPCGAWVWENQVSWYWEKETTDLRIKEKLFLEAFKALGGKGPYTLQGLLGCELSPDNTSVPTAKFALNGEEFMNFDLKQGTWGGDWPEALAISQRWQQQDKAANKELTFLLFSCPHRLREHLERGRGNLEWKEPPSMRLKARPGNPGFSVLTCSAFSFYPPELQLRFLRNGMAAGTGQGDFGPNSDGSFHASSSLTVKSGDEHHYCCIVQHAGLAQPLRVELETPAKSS
T2 sequence (Q8SPW0 21-119 limits assumed, chain 2 of 2): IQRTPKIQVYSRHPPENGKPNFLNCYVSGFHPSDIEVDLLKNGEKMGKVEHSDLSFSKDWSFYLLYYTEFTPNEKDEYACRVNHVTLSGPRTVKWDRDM
Experimental: as §1, §2

[3] = target: T1, human neonatal Fc receptor (hFcRn); test: SPR competition pH 7.4
Experimental: as §1
(§3) As positive controls, 10 mM human and cynomolgus monkey FcRn were each incubated in the same solution, for the same time, and at the same temperature described immediately above, but without an added Fc-fragment.

[4] = target: T2, cynomolgus monkey FcRn; test: SPR competition pH 7.4
Experimental: as §1, §3

[5] = target: T1, human neonatal Fc receptor (hFcRn); test: SPR competition pH 5.5; remark: listed apart in the source
[6] = target: T2, cynomolgus monkey FcRn; test: SPR competition pH 5.5; remark: listed apart in the source
[7] = target: T1, human neonatal Fc receptor (hFcRn); test: SPR competition pH 7.4; remark: listed apart in the source
[8] = target: T2, cynomolgus monkey FcRn; test: SPR competition pH 7.4; remark: listed apart in the source

EC50 [1]	EC50 [2]	EC50 [3]	EC50 [4]	EC50 [5]	EC50 [6]	EC50 [7]	EC50 [8]	Binder
2.6 nM	2.3 nM	45 nM	42 nM	–	–	–	–	B1
–	–	–	–	2.3 nM	2.8 nM	650 nM	710 nM	B2
